This note sets out measurements from the supplement of paper PMC9170038.

The data set concerns MS2 coat protein. The data set can be described thus: apparent KD of MS2 coat protein; higher = weaker reporter binding. As to conditions: Eterna round: R107. The procedure, abridged:
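Designed RNA switches were transcribed on-chip from Illumina sequencing clusters. They were then titrated with SNAP-549-labelled MS2 coat protein (twofold steps, 0.7 or 1.5 nM to 3 µM; 0.8–1.5 h to 10–20 min per step) in 100 mM Tris-HCl pH 7.5, 80 mM KCl, 4 mM MgCl2, without or with constant ligand. Apparent KD is the per-design median of normalised cluster binding-curve fits.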

[1] abbreviates: input ligand: theophylline 20 uM.
The mark [2] stands for this setting: input ligand: tryptophan 2.4 mM.
Where [3] appears, read: input ligand: theophylline 2 mM.

For “CGUAUCGUAACUGAUACCAGUGUACUGACAUGAGGAUCACCCAUGUUGGGUUUUGUUGUACACCCUUGGCAGCAGAAUCGAUACG [AstrosExyTheB#6]”, the “apparent KD of MS2 coat protein” value reads like this: (input ligand: arginine 13.2 mM) 52.1 nM; under setting [1], 68.6 nM; under setting [2], 62.9 nM.
For the sequence “CGUCAACAUGAGGAUCACCCAUGUUUCGAUACCAGUGACCCUCUCCACCCUUGGCAGCGAGCGCCCGCGCCUGAUAAAUCUUCUA [theeternabot_sameState_MS2_Theo_A_18]”, the “apparent KD of MS2 coat protein” value was 13.5 nM (input ligand: arginine 13.2 mM), 16.4 nM under setting [1] and 14.1 nM under setting [2].
On to “CGUCGAAACUGAAGGAGCGAGAUGACAACAUUGGGUCUAACAUGAGGAUCACCCAUGUAAUCUCAGGUAGGUCGCGGUGACAACA [Exclusion Arginine B GF 17]”, for which the “apparent KD of MS2 coat protein” value is, setting by setting: (input ligand: arginine 13.2 mM) 40.1 nM; (input ligand: none) 38.9 nM; under setting [1], 48.5 nM; under setting [3], 59.6 nM; under setting [2], 51.7 nM.
For the sequence “CGUUGGUGUGGAGACAUAUUGAUGACUGAAGGAGCGGGAAUAAACCCAGGUAGGUCGCAGAGAUCCACAUGAGGAUCACCCAUGU [!0.R]”, the “apparent KD of MS2 coat protein” value runs as follows: (input ligand: arginine 13.2 mM) 26.3 nM; (input ligand: none) 73.1 nM; under setting [1], 74.9 nM; under setting [3], 154 nM; under setting [2], 49.5 nM.
Take “CUAAUUAAAUCGGCCGCCACUUACUCAUGAGGUAACAACAUGAGGAUCACCCAUGUUUGAGGAUCAAGGACCGGGAUUUAAUUAG [AstrosSSTry#23]”: the “apparent KD of MS2 coat protein” value runs as follows: (input ligand: arginine 13.2 mM) 24.9 nM; under setting [1], 33.7 nM; under setting [3], 30.1 nM.
In the same order, the values of “CUACAUUUGUAGAAACCGGUCAACAUUAUUCGAGGACCGGUACGGCCGCCACUCGUAUAAUUUAAUACAUGAGGAUCACCCAUGU [Tryptophan A 5]” are 16.1 nM, 17.3 nM and 16.9 nM.
For “CUAUAAGUAACUGAUACCAGUGUACUGACAUGAGGAUCACCCAUGUUGGGUUUUGUUGUACACCCUUGGCAGCAGAAUCUUGUAG [AstrosExyTheB#15]”, the “apparent KD of MS2 coat protein” value (input ligand: arginine 13.2 mM) stood at 46.5 nM, the “apparent KD of MS2 coat protein” value under setting [1] amounted to 62.3 nM and the “apparent KD of MS2 coat protein” value under setting [2] was 54 nM.
Regarding “CUAUAGAUAAGAAGGAGCGUCGAAAAUGGGUAAACAUGAGGAUCACCCAUGUAAAGGGAACGACAGGUAGGUCGCUUAUUUAUAG [AstromonsSSArgB#6]”, the “apparent KD of MS2 coat protein” value was found to be 124 nM (input ligand: arginine 13.2 mM); 217 nM (input ligand: none); 206 nM under setting [1]; 226 nM under setting [3]; 145 nM under setting [2].
As to “CUCAUCCACGCGGCCGCCACUAUAUUGUGGUGCGAAUGUGUCGUAAUACAUGAGGAUCACCCAUGUAGGACCGGGCGUGGAUGAG [#09 Exclusion Tryptophan B]”, the “apparent KD of MS2 coat protein” value (input ligand: arginine 13.2 mM) is 10.3 nM, the “apparent KD of MS2 coat protein” value under setting [1] is 14.4 nM and the “apparent KD of MS2 coat protein” value under setting [3] was found to be 13.5 nM.
For the sequence “CUCAUCCACGCGGCCGCCACUAUAUUGUGGUGUGAAUGUGACGUAUUACAUGAGGAUCACCCAUGUAGGACCGGGCGUGGAUGAG [#07 Exclusion Tryptophan B]”, the “apparent KD of MS2 coat protein” value was 55.8 nM (input ligand: arginine 13.2 mM), 86.2 nM under setting [1] and 93.5 nM under setting [3].
In the same order, the values of “CUCAUCCACGCGGCCGCCACUAUAUUGUGGUGUGAAUGUGUCGUAAUACAUGAGGAUCACCCAUGUAGGACCGGGCGUGGAUGAG [#08 Exclusion Tryptophan B]” are 19.3 nM, 30.9 nM and 37.4 nM.
“CUCCCGUGGUCGGCCGCCACUGGAGGCCUUGCGCGACAUGAGGAUCACCCAUGUGGGCCCGGCGUCAGGACCGGGAUCGCGUGAG [#1 Same State - Tryptophan B Attempt #11 (HarryS)]”: the “apparent KD of MS2 coat protein” value reads like this: (input ligand: arginine 13.2 mM) 11.5 nM; (input ligand: none) 16.1 nM; under setting [1], 20.2 nM; under setting [3], 16.2 nM; under setting [2], 15.6 nM.
Consider “CUCCUGGGAGCGGCCGCCACUGGAGGCCUCGCGCGACAUGAGGAUCACCCAUGUUGGCCCGGCCUCAGGACCGGGUUCGCGCGAG [Same State - Tryptophan B Attempt #3]”, for which the “apparent KD of MS2 coat protein” value by setting is: (input ligand: arginine 13.2 mM) 8.01 nM; (input ligand: none) 12.9 nM; under setting [1], 17.9 nM; under setting [3], 10.6 nM; under setting [2], 10 nM.
Take “CUCCUGGGAGCGGCCGCCACUGGAGGCCUUGCGCGACAUGAGGAUCACCCAUGUUGGCCCGGCCUCAGGACCGGGUUCGCGCGAG [Same State - Tryptophan B Attempt #2]”: the “apparent KD of MS2 coat protein” value was 12.3 nM (input ligand: arginine 13.2 mM); 11.3 nM (input ligand: none); 12.3 nM under setting [1]; 9.73 nM under setting [3]; 10.1 nM under setting [2].
On to “CUCCUGUGAGCGGCCGCCACUGGAGGCCUCGCGCGACAUGAGGAUCACCCAUGUUGGCCCGGCCUCAGGACCGGGUUCGCGCGAG [Same State - Tryptophan B Attempt #4 (HarryS)]”, for which the “apparent KD of MS2 coat protein” value was 7.89 nM (input ligand: arginine 13.2 mM); 11.1 nM (input ligand: none); 15.4 nM under setting [1]; 10.7 nM under setting [3]; 10.9 nM under setting [2].
Turning to “CUCGAGUUAUGAGAUACCAGACUAUAGUUUACAUGAGGAUCACCCAUGUUAUGGGUGGUGGUCCCUUGGCAGCUCAUAUGUUUAA [#08 Exclusion-TheophyllineB]”, the “apparent KD of MS2 coat protein” value is, setting by setting: (input ligand: arginine 13.2 mM) 105 nM; under setting [1], 220 nM; under setting [2], 85.1 nM.
In the case of “CUCUCAUGAACAUGAGGAUCACCCAUGUAACGAGGACCGGUACGGCCGCCACUCGAACGUGGAUACCAAUCGAGUGGGUGAGAGA [Tryp A Ex t5]”, the “apparent KD of MS2 coat protein” value was 31 nM (input ligand: arginine 13.2 mM); 21.5 nM (input ligand: none); 25.2 nM under setting [1]; 23.8 nM under setting [3]; 80.1 nM under setting [2].
In the case of “CUGCCAUGCAGAGAUACCAGUGCGCUCAGCACAUGAGGAUCACCCAUGUCGGCUGCCGAUCACCCUUGGCAGCUCUGCAUGGCAG [?@#$_]”, the “apparent KD of MS2 coat protein” value by setting is: (input ligand: arginine 13.2 mM) 12 nM; under setting [1], 13 nM; under setting [2], 11.3 nM.
For the sequence “CUGGACAUGAGGAUCACCCAUGUAAAUCCUCGAGGACCGGUACGGCCGCCACUCGAACGAGUGGCACGCGAGUGCGCACUCGCGU [aLa]”, the “apparent KD of MS2 coat protein” value worked out at 26.9 nM (input ligand: arginine 13.2 mM); 29.8 nM (input ligand: none); 45.6 nM under setting [1]; 36.2 nM under setting [3]; 33 nM under setting [2].
